One experiment concerns the target human Sortilin (human, UniProt Q99523 78-830). Kind of experiment: cell-based or functional assay.
A further experiment deals with mouse Sortilin (mouse, UniProt Q6PHU5 74-825). Kind of experiment: cell-based or functional assay.
In experiment [1] the target is T1, recombinant mouse Sortilin (mouse, UniProt Q6PHU5 74-825).
T1 construct: also called mSort
Kind of experiment: flow cytometry, 293 cells expressing recombinant mouse Sortilin, 10 ug/ml antibody. On the technique in general: In flow cytometry, cells or beads pass a laser one at a time.
Procedure: (§1) Cells were harvested, plated at 10⁵/ml in a 96 well plate, washed, and incubated in 100 μl PBS containing 10 μg/ml Mab and 2% FBS for 1 hour in ice. Cells were then washed twice and incubated in 100 μl PBS+2% FBS containing 5 μg/ml PE-conjugated anti-human secondary antibody for 30 minutes in ice. Cells were washed twice in cold PBS and data was acquired on a BD FACS Canto. Data analysis and calculation of MFI values was performed with FlowJo (TreeStar) software version 10.0.7.

Experiment [2] has as its target T2, recombinant human Sortilin (human, UniProt Q99523 78-830).
T2 construct: also called hSort; SORT1
Briefly: flow cytometry, 293 cells expressing recombinant human Sortilin, 10 ug/ml antibody.
Procedure: as §1

B1: anti-Sortilin antibody S-29 (antibody, V domains shown)
VH: EVQLVESGGGLVKPGGSLRLSCAASGFTFSSYSMNWVRQAPGKGLEWVSSISSSSNYIYYADSVKGRFTISRDNAKNSLYLQMNSLRAEDTAVYYCARGGLDRWGSFDIWGQGTMVTVSS
VL: not shown
With B1, in the experiment with human Sortilin, the “Percent reduction of Sortilin levels in U251 cells” value (from here on “Percent reduction … in U251 cells”) came to 90.8%. Moreover, the “Percent reduction of Sortilin levels in N2A cells” value (from here on “Percent reduction … in N2A cells”) with mouse Sortilin is 53.8%.

B2: anti-Sortilin antibody S-28 (antibody, V domains shown)
VH: EVQLVESGGGLVKPGGSLRLSCAASGFTFSSYSMNWVRQAPGKGLEWVSSISSSSNYIYYADSVKGRFTISRDNAKNSLYLQMNSLRAEDTAVYYCARGGLDRWGSFDIWGQGTMVTVSS
VL: not shown
notes: IgG
Take B2: the MFI in experiment [1] is 21600 MFI; in experiment [2] it was 8560 MFI.

B3: anti-Sortilin antibody S-28 (antibody, V domains shown)
VH: EVQLVESGGGLVKPGGSLRLSCAASGFTFSSYSMNWVRQAPGKGLEWVSSISSSSNYIYYADSVKGRFTISRDNAKNSLYLQMNSLRAEDTAVYYCARGGLDRWGSFDIWGQGTMVTVSS
VL: not shown
Take B3: in the experiment with human Sortilin, the “Percent reduction … in U251 cells” value turned out to be 85%. The “Percent reduction … in N2A cells” value with mouse Sortilin worked out at 51.1%.

B4: anti-Sortilin antibody S-29 (antibody, V domains shown)
VH: EVQLVESGGGLVKPGGSLRLSCAASGFTFSSYSMNWVRQAPGKGLEWVSSISSSSNYIYYADSVKGRFTISRDNAKNSLYLQMNSLRAEDTAVYYCARGGLDRWGSFDIWGQGTMVTVSS
VL: not shown
notes: IgG
As to B4, the MFI in experiment [1] stood at 21800 MFI; in experiment [2] it was 9600 MFI.

B5: anti-Sortilin antibody S-15 (antibody, V domains shown)
VH: QVQLVQSGAEVKKPGASVKVSCKASGYTFTSYYMSWVRQAPGQGLEWMGIINPSGGSTSYAQKFQGRVTMTRDTSTSTVYMELSSLRSEDTAVYYCARDPSGIAAAGPASRYYYGMDVWGQGTTVTVSS
VL: EIVMTQSPATLSVSPGERATLSCRASQSVSSNLAWYQQKPGQAPRLLIYGASTRATGIPARFSGSGSGTEFTLTISSLQSEDFAVYYCQQARLGPWTFGGGTKVEIK
Consider B5, for which the “Percent reduction … in U251 cells” value with human Sortilin is 87.8%. The “Percent reduction … in N2A cells” value with mouse Sortilin is 76.1%.

B6: anti-Sortilin antibody S-14 (antibody, V domains shown)
VH: QVQLVQSGAEVKKPGASVKVSCKASGYTFTSYYMSWVRQAPGQGLEWMGIINPSGGSTSYAQKFQGRVTMTRDTSTSTVYMELSSLRSEDTAVYYCARDPSGIAAAGPASRYYYGMDVWGQGTTVTVSS
VL: DIQMTQSPSSLSASVGDRVTITCRASQSISSYLNWYQQKPGKAPKLLIYGASSLQSGVPSRFSGSGSGTDFTLTISSLQPEDFATYYCQQHYVGPFTFGGGTKVEIK
notes: IgG
Turning to B6, the MFI in experiment [1] was 16500 MFI; in experiment [2], 8010 MFI.

B7: anti-Sortilin antibody S-15 (antibody, V domains shown)
VH: QVQLVQSGAEVKKPGASVKVSCKASGYTFTSYYMSWVRQAPGQGLEWMGIINPSGGSTSYAQKFQGRVTMTRDTSTSTVYMELSSLRSEDTAVYYCARDPSGIAAAGPASRYYYGMDVWGQGTTVTVSS
VL: EIVMTQSPATLSVSPGERATLSCRASQSVSSNLAWYQQKPGQAPRLLIYGASTRATGIPARFSGSGSGTEFTLTISSLQSEDFAVYYCQQARLGPWTFGGGTKVEIK
notes: IgG
Take B7: the results for the MFI in experiment [1] and in experiment [2] were 17600 MFI and 8740 MFI, respectively.

B8: anti-Sortilin antibody S-22 (antibody, V domains shown)
VH: QVQLVQSGAEVKKPGSSVKVSCKASGGTFSSYAISWVRQAPGQGLEWMGGIIPIFGTASYAQKFQGRVTITADESTSTAYMELSSLRSEDTAVYYCARQGRKTGYYYYYGMDVWGQGTTVTVSS
VL: DIQMTQSPSTLSASVGDRVTITCRASQSISSWLAWYQQKPGKAPKLLIYKASSLESGVPSRFSGSGSGTEFTLTISSLQPDDFATYYCQQADGHITFGGGTKVEIK
For B8, the “Percent reduction … in U251 cells” value with human Sortilin came to 92.7%. The “Percent reduction … in N2A cells” value in the experiment with mouse Sortilin came to 87.7%.

B9: anti-Sortilin antibody S-21 (antibody, V domains shown)
VH: QVQLVQSGAEVKKPGSSVKVSCKASGGTFSSYAISWVRQAPGQGLEWMGSIIPIFGTANYAQKFQGRVTITADESTSTAYMELSSLRSEDTAVYYCARERRYDGYYYYYGMDVWGQGTTVTVSS
VL: DIQMTQSPSSLSASVGDRVTITCRASQSISSYLNWYQQKPGKAPKLLIYAASSLQSGVPSRFSGSGSGTDFTLTISSLQPEDFATYYCQQKASLPFTFGGGTKVEIK
notes: IgG
As for B9, the MFI in experiment [1] was found to be 22900 MFI; in experiment [2], 9380 MFI.

B10: anti-Sortilin antibody S-22 (antibody, V domains shown)
VH: QVQLVQSGAEVKKPGSSVKVSCKASGGTFSSYAISWVRQAPGQGLEWMGGIIPIFGTASYAQKFQGRVTITADESTSTAYMELSSLRSEDTAVYYCARQGRKTGYYYYYGMDVWGQGTTVTVSS
VL: DIQMTQSPSTLSASVGDRVTITCRASQSISSWLAWYQQKPGKAPKLLIYKASSLESGVPSRFSGSGSGTEFTLTISSLQPDDFATYYCQQADGHITFGGGTKVEIK
notes: IgG
As for B10, the MFI in experiment [1] came to 23200 MFI; in experiment [2] it was 8940 MFI.

B11: anti-Sortilin antibody S-18 (antibody, V domains shown)
VH: QVQLVQSGAEVKKPGSSVKVSCKASGGTFSSYAISWVRQAPGQGLEWMGSIIPIFGTANYAQKFQGRVTITADESTSTAYMELSSLRSEDTAVYYCARDKHGRRGYYYYMDVWGKGTTVTVSS
VL: EIVLTQSPATLSLSPGERATLSCRASQSVSSYLAWYQQKPGQAPRLLIYDASNRATGIPARFSGSGSGTDFTLTISSLEPEDFAVYYCQQGANAPPRTFGGGTKVEIK
As for B11, the “Percent reduction … in U251 cells” value with human Sortilin stood at 85.7%. In addition, the “Percent reduction … in N2A cells” value in the experiment with mouse Sortilin is 58%.

B12: anti-Sortilin antibody S-18 (antibody, V domains shown)
VH: QVQLVQSGAEVKKPGSSVKVSCKASGGTFSSYAISWVRQAPGQGLEWMGSIIPIFGTANYAQKFQGRVTITADESTSTAYMELSSLRSEDTAVYYCARDKHGRRGYYYYMDVWGKGTTVTVSS
VL: EIVLTQSPATLSLSPGERATLSCRASQSVSSYLAWYQQKPGQAPRLLIYDASNRATGIPARFSGSGSGTDFTLTISSLEPEDFAVYYCQQGANAPPRTFGGGTKVEIK
notes: IgG
As to B12, the MFI in experiment [1] is 21700 MFI; in experiment [2], 9350 MFI.

B13: anti-Sortilin antibody S-2 (antibody, V domains shown)
VH: not shown
VL: DIQMTQSPSSLSASVGDRVTITCRASQSISSYLNWYQQKPGKAPKLLIYAASSLQSGVPSRFSGSGSGTDFTLTISSLQPEDFATYYCQQSDVSPITFGGGTKVEIK
Turning to B13, the “Percent reduction … in U251 cells” value with human Sortilin was 96.2%. In addition, the “Percent reduction … in N2A cells” value with mouse Sortilin was 66%.

B14: anti-Sortilin antibody S-19 (antibody, V domains shown)
VH: QVQLVQSGAEVKKPGSSVKVSCKASGGTFSSYAISWVRQAPGQGLEWMGGIIPIFGTASYAQKFQGRVTITADESTSTAYMELSSLRSEDTAVYYCARESRIPGSGYYYYYGMDVWGQGTTVTVSS
VL: DIQMTQSPSSLSASVGDRVTITCRASQSISSYLNWYQQKPGKAPKLLIYSASSLQSGVPSRFSGSGSGTDFTLTISSLQPEDFATYYCQQTDGKPPTFGGGTKVEIK
notes: IgG
As for B14, the values for the MFI in experiment [1] and in experiment [2] were 28200 MFI and 11700 MFI, respectively.

B15: anti-Sortilin antibody S-26 (antibody, V domains shown)
VH: EVQLVESGGGLVKPGGSLRLSCAASGFTFSSYSMNWVRQAPGKGLEWVSSISSSSSYIYYADSVKGRFTISRDNAKNSLYLQMNSLRAEDTAVYYCARDRLGRGYKWNWFDPWGQGTLVTVSS
VL: DIQMTQSPSSVSASVGDRVTITCRASQGIDSWLAWYQQKPGKAPKLLIYAASSLQSGVPSRFSGSGSGTDFTLTISSLQPEDFATYYCQQGNSLPPITFGGGTKVEIK
notes: IgG
B15: the figures for the MFI in experiment [1] and in experiment [2] were 20900 MFI and 9020 MFI, respectively.

The record behind these values is US20220251219A1 (published 2022).
